assay: soluble fraction after stress (log2 fold change); higher = more stays soluble; pooled small domains, quantitative proteomics; settings: stress: pH 4
Outline: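 After pH 4 stress, pooled custom libraries of small protein domains were quantified with high-throughput quantitative proteomics. Aggregation propensity is taken from the fold change in each domain's soluble amount following the acid stress. The scale is log2, where higher values mean more stayed soluble.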

Row | Sequence | soluble fraction (log2)
1 | HMLRDTTLLHIDSIVRDGSTAMANITVRDEGTDLEFPLQLRMERGDMGWQVVRIVNYRAYLEAVQKA | -0.59
2 | HMEALGLSPRQVDVLRLLVEGRSNKMIMRELELSESTVKTHLQAIFRRLGVSSRTQAVVAAARLGL | -0.418
3 | HMNLSSETLSEMEARIGQMGVVELQDRRAYLLQEQEGTQNPSRLKEIADELSAIQKALVALV | -0.401
4 | HMEYLIENYGSVINQARMKKGMTQEQLSSKTGVSQAYIRSIESQNMKPTDAVARKIEFELGIKLFE | 0.147
5 | HMDMRLADLIGRDGITITFMRPSGKVEIDGEIYDAVSDVGLIDKNEEVEVIKFENAQLVVTKKNKN | 0.108
6 | HMGYSDEIGEFIKKLRTENHLTQKEFADKYGVTYQAVSKWENGKNLPDMSLIKQMSEDFNIGIDELLDGEK | -0.454
7 | HMAGTRRFELVEGSSSKFWEVTVADGSYTVTYGRIGTAGGSKTTESATAEADAEKLVREKLKKGYQEAGAA | 0.128
8 | HMSDTGQELHDALNMARRTLTILEEQAAGYTALTIPARLVLELEEKRKDVVRLETQIRSAATGTPG | 0.00666
9 | HMGADSFTGYTPIHKIDNPSDGINDGASYVVYFQKDGTDPTEFYKAVNANASTLAQLTSGTEYDLASSKKL | -0.722
10 | HMKGTSIELIVPQDIAGLRLDQVLAKLLPQWSRSRLQSWINEKHITVNGQTTTAKQKLWGNETIQIIPPI | -0.0718
11 | HMYEDGGAFLKAEREKYGLTLTDIYEHTHIPVRKLKAYEMHEEEMPDRTRALLELYFDQVAYEYES | -0.339
12 | HMKPPTIELSYSEFIELVERGKVSKVIFSSDNYTLKGETVNGENFETVRPPFLEDNLSEILTIHKVPVSSE | -0.785
13 | HMKTMAVYPVGTRVLTSDGEIGVVEKQNSEAPERPVIKILKGADGHDYEKPDFKDLMKILTLFIVDTI | 0.0457
14 | HMYKNLRAFRESLGMTQKDFAASLSIGLSTYNGYEVGAREPKSDFWIAVARKYGVTIDYLMGFSDDPHK | 0.195
15 | HMIEGETPEQTMERVSKDPEIVQILQDPVMQGILAQARENPAALQDHMKNPEVYKKINMLIAAGVIRT | -0.113
16 | HMHLPDNAVSIISELKMTPEEVLELIGKLPHDFLFLPYSQRKKIIVDLIPNKDYKLLMSLIKKFML | -0.536
17 | HMIKRNPLDEIEGVGPGRKKALLHAFGSAKGVSRASVVDLVKVEGVSQALAERIHDFFHPATR | 0.198
18 | HMQVSDTNTLEQFAKEVIEANPKAVEDYHQNPLAIGFLVGQLMKVSKGSANPQTGKEILEKLL | -0.185
19 | HMRGFTDFEHIEKEYLATIEKLNWPDGVTLPDKLEGEDTGTSFQVGYGDTRASNLWEYSWMK | -1.15
20 | HMRKNVAGITPNVYGMGLKDAVYLLENAGYRVKVNGRGNVVRQSINSGTRIIKGQLIILDLD | 0.0848
21 | HMPKNVEVPNVVGLSLPMAKLRLTQLGLHIVVRDSVWSETGQPNTILDQDPQPGKKIKPESTVYVKVN | ≥ 0.43
22 | HMDAPIIRLLNSLVQRAVTTTASDIHIEPFEGETKVRMRIDGVIIDYVTLQRALHQPLIARIKIMSNLD | -0.237
23 | HMDNPKGNLQEAVQAKGNEPIEYRVLNVDGPDHAREFKIAVFIGGKRKGTGVGNSKKKAEEIAAEKAFKRM | -0.189
24 | HMKNETFAITSEDAGKRLDVWLTNILGDYSRSYVERLVEQGNVTVGGKTVKAGYKLKAGDSVQVSIPGPK | 0.0982
25 | HMSNRDNPVVLDFKKVKSTEQLDNILEEYIRENFEGYTVKGRMFSSDEGKFIIALALKDDDGKRALVYFDV | -1.06
26 | HMHTNNALWAIADDMRARKDDGEFDTYREGYKWAANNIVKEGIHITAIKLEKAYHKAKSEGKV | 0.301
27 | HMNEKTGTLTVYSSPGWAKVYIDGEYKGITPVMANLTYGDHYVKLTLDGYDSIGNHIDVNSPDQSYTGKF | 0.0783
28 | HMTTETGTVKWFNEGKGFGFIAPDGGGKDLFAHFKEIQGSGFKTLTENQRVQFEVTQGQKGPQASNIRTL | -0.183

Row | Sequence | soluble fraction (log2)
29 | HMTKRTVKSVARKIADFNRERHRMPTYEEMLTLLAVRSKSVVHFWMNKLLQEGILEKDESGHLTFV | 0.14
30 | HMFPATAPQLKAVHAILGKQGISDELDKLARVNEWLVGLNKEPVAAISELDKHTTSGLIDHLQGELNE | -0.131
31 | HMQVLSESDVEDIKAISGGDKAYDNLMEWAGSKLSKQDAKDYDDVLATGNKTAITFAVKALMAQYENAN | -1.05
32 | HMSSRLEIEITSKIDDLSHTWRAVGAKQPKGNIKSSLLPSGVKVGETFRVEADFLLDGIEIVSVLPP | -1.52
33 | HMSKEIQNILASLPSVDVLLKQIDPIYPHGKAKEATQQVVARLRESVVDGTRKTVIDQKEVIAMIHKQLEE | -0.149
34 | HMQTKNYVYFNNTENWSTVNVYVWSSKDSTYMSWPGKAMESIGNNTYRFELPNGAEYAIFNNGSAQTVD | -0.185
35 | HMHSFGLHVRNLRKKSNLTLSQLSNASGLSLSAISKIENNQISPSFINLIRLAEGLKMHIADLVTVK | -0.254
36 | HMHANSDVEQLMQMGIQRLNFQRYSDALLIFNQIIENFPDYAEAWNKRATLHYLLGNLDKSIADIEQTLE | -1.54
37 | HMFGELTPDTAKRFLLTAREQEMASLIAQGLTNKEIAFRLGISEATVRTHIYNLFQKVGVQSRIELLNVLH | -0.162
38 | HMRNGGHTVYRNNGSLFIVVRDGDKLESVASEFRVSPKKLIKYNDLDIHSNVKTGDMIYIRPKA | -0.124
39 | HMDSGFMRTTQSYTVARLAEIFRLSGEDYLAVLREYDGWYQDLTSTKDLIRKGSDVPVPEGV | -1.02
40 | HMTGESVPAPLSGTIFKILVAPGEQVEEGQTVIILEAMKMETEISAPRSGVVGAINIKEGDSVQVGQSLFT | 0.104
41 | HMVLSVRDRMVQILDQVKTGEYKRIEDFFSADEGRTGFVVSFVAILELVKGGLLTITQSKNLAPIYVRLPN | -0.108
42 | HMSVSEAELAEKYHADDLEALKSGKLHEFQENLIDRNGKKYTVQTMKDILTLSDGTRLLLGIGLD | -0.0916
43 | HMQGVNLTETEKNFIAQVLSPLLKQGQSLYQIRTNHPEIKLSVKTLYTYIESGIFKESGINNFSLRRQ | -0.319
44 | HMRGAIKMAEEQMAGHKKIGSISGTAPTQGELEKKFAMAAAQMGARYYVITGLSNNNYAFGNADIY | -0.194
45 | HMAIDINKIYSEIKKKIPNQDNHIKEILSIIWRDFNNYQNIKSRSILINGEKSSPKKEIFNIIEDNINIPV | 0.00852
46 | HMNLGETIYNLRKEKKLSQGDLAEQLSVSRQSVSKWENNSAVPDLDKLVKLSTIFGVSLDELVKG | 0.409
47 | HMGPEISEDAKVVFDRLKNHDEILLNNFKSEFDLSNKKWDKIIKELRGNDLISIIKSEDGNLFIKP | -0.293
48 | HMTDAEQHEALLFKQVVDGLPQTLRDTFVLSRHAGMTYAEISAHTGTPIKTVESRMAKALELIAQRMR | 0.0158
49 | HMSWEDSLLKQAREIIDMYPQKRSAVGPLLHLAQSKDGYISDDSISVISKLVGITEVQLKSVSTFYSMYK | -1.23
50 | HMRGPPQVLVDVELEDGRVGQIGVRNGDDATELAETFVRAFRLEQSFVGRLANVIQGKIRELLHSQ | -1.17
51 | HMQLTPAQHAILAHALEHSDGKIVWFPDNIKGGARKKVLDGLLNRALITTDGTDWFVAAEGYDAMGR | 0.063
52 | HMGDSFLDHKKELQSMILSRLDLSREVPDEEIKDIIDELIIAQSKKLFLSLNDRGKLRQELFYSIRK | -0.906
53 | HMYIENIGDYLKSHDIKPSYQRIKVFEYLMQHKNHPTVDMIYKSLVDEIPTLSKTTVYNTLNLFIEKQI | 0.0963
54 | HMGLKWVYYTNIEPDGNKINNQKLYDILKQKFVYPVIISRDELDSMELKDLTYDSYIDVEGRYFKPYNLD | -2.03
55 | HMGQLSDREALTVLAREALVELPRAAGDYRNGRTAALQSLVGRVMRKTAGRGNPALLQEIFRSLL | 0.00453
